A word on the EC50: it is the concentration that produces a half-maximal response.

Data set [1] can be described thus: Size exclusion chromatography (SEC) developability. Format: physicochemical. Conditions: 1 mg/mL in Dulbecco's PBS pH 7.4. The protocol: Antibodies that were selected for binding to 5T4, such as those described in Examples 2 and 3, were tested by various methods to assess developability. For example, various chromatographic methods, including size exclusion chromatography (SEC), hydrophobic interaction chromatography (HIC), and standup monolayer adsorption chromatography (SMAC) were employed to assess factors, such as monomer percentage, solubility, and antibody aggregation or precipitation.
Size exclusion chromatography (SEC) analysis was performed using a 7.8 mm ID×30 cm TSKgel G3000SWXL column (Tosoh Bioscience LLC, PN 08541) with a 6 mm×4 cm guard column (PN 08543) on an Agilent 1100 HPLC. Antibodies were normalized to 1 mg/mL concentration in Dulbecco's PBS (pH 7.4, without Ca^2+/Mg^2+) and clarified via centrifugation to pellet particulates while still retaining soluble aggregates. The mobile phase buffer was Dulbecco's PBS (pH 7.4, without Ca^2+/Mg^2+) at 2× concentration (diluted from 10× stock concentration. For each sample, 10 μL was loaded and isocratically eluted at 1.0 mL/minute over 20 minutes at ambient temperature. Absorbance was monitored at 280 nm. Chromatographic peaks were integrated to determine percentage of homogeneity and retention time. The column stationary phase along with choice of mobile phase supports hydrophobic and electrostatic interactions in addition to molecular sizing (secondary interactions much milder compared to SMAC). Data analysis was performed using Agilent ChemStation B.04.03 SP1.

The target of data set [2] is T1, HEK293 and CHO cells transfected to express cyno 5T4 (Macaca fascicularis, UniProt Q4R8Y9).
T1 construct: expressed in transfected cells; host or cells: HEK293 and CHO
T1 sequence (Q4R8Y9 35-420): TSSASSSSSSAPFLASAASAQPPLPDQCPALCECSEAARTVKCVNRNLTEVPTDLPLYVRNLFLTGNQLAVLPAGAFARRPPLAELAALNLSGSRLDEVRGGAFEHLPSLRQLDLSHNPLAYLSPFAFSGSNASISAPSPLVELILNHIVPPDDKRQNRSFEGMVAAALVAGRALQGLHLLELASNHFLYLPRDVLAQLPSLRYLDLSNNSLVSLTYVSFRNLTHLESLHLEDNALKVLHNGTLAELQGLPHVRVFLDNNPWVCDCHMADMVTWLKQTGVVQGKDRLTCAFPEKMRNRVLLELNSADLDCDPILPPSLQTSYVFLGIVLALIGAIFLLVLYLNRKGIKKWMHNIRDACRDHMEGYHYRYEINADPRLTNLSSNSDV
Nature of the data set: Cell binding to transfected HEK293 and CHO cells, cyno 5T4. It is filed as cell-based. As to the method: Unconjugated antibodies were tested for their ability to bind to HEK293 and CHO cells transfected to express human, cyno, rat, or mouse 5T4.

In data set [3] the target is T2, unconjugated human TPBG/5T4 protein with a c-terminal polyhistidine and Avi tag (AcroBiosystems Cat. No. … (human, UniProt Q13641 32-355)).
T2 construct: Bought protein; also called Acro TPGH52E5; Acro Catalog No. TPGH52E; not shown: C-terminal polyhistidine and Avi tag
T2 sequence: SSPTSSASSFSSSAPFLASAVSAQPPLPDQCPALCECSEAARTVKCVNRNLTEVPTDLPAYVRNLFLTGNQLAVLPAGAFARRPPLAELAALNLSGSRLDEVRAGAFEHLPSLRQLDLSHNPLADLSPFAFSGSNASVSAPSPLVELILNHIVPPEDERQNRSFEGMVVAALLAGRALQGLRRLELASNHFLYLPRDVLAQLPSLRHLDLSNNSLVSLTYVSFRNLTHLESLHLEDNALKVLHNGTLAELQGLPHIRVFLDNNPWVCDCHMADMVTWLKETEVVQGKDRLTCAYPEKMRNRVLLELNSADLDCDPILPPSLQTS
Put plainly: ELISA on coated human 5T4 His-Avi (Acro TPG-H52E5); antibody condition: pH 5.5 Day 0. As to the method:
(§1) A. Normal Binding Unconjugated antibodies were tested for their ability to bind to human 5T4 (hu5T4) using ELISA. On Day 1, unconjugated human TPBG/5T4 protein with a c-terminal polyhistidine and Avi (AVITAG™) tag (AcroBiosystems (Newark, DE, USA), Cat. No. TPG-H52E5) was diluted 2 μg/mL in PBS, mixed thoroughly, plated 100 μL per well in a 96-well plate (Nunc MAXISORP®) and incubated overnight at 4° C.
2. Low pH Stress Test. Several unconjugated antibodies were tested for their ability to bind to 5T4 using ELISA under acidic (low pH) conditions. Solutions of 1 mg/mL to 10 mg/mL of antibody in […] were prepared and stored at 37° C. for 1 to 2 weeks.
For orientation: In an ELISA, binding on a coated surface is turned into a signal by an enzyme label.

Data set [4] deals with T2, unconjugated human TPBG/5T4 protein …. Put plainly: ELISA on coated human 5T4 His-Avi (Acro TPG-H52E5); antibody condition: PBS + H2O2 time 48 hr. As to the method:
as §1
3. Oxidative Stress. Several unconjugated antibodies were tested for their ability to bind to 5T4 using ELISA in an oxidative environment. […]

The target is the same in data set [5]. Put plainly: ELISA on coated human 5T4 His-Avi (Acro TPG-H52E5); antibody condition: pH 5.5 Day 1. As to the method:
as §1

Data set [6] has the same target. Nature of the data set: ELISA on coated human 5T4 His-Avi (Acro TPG-H52E5); antibody condition: PBS time 48 hr. As to the method: as §1
3. Oxidative Stress. Several unconjugated antibodies were tested for their ability to bind to 5T4 using ELISA in an oxidative environment. Solutions of 1 mg/mL to 10 mg/mL of antibody in 20 mM citrate/50 mM NaCl at a pH of 5.5 were prepared and stored at 37° C. for 1 to 2 weeks.

B1: mAbA4: 5T4 antibody comprising VH of SEQ ID NO:25 and VL of SEQ ID NO:26 (antibody, V domains shown)
VH: EVQLVESGGGLVQPGGSLRLSCAASGFTFSRYYIHWVRQAPGKGLEWVAFISPGGSYTYYADSVKGRFTISADTSKNTAYLQMNSLRAEDTAVYYCAREYYSMGVLDYWGQGTLVTVSS
VL: DIQMTQSPSSLSASVGDRVTITCRASQSVSSAVAWYQQKPGKAPKLLIYSASSLYSGVPSRFSGSRSGTDFTLTISSLQPEDFATYYCQQAYESPYTFGQGTKVEIK
modifications: Antibody mAbA4 VH Sequence; Antibody mAbA4 VL Sequence
For the molecule B1, the “developability based on SEC analysis” value in data set [1] is recorded as “strong developability”. Further, the “reactivity to cells transfected to express cyno 5T4” value (“reactivity to cells transfected” below) in data set [2] is “reactive”.

B2: mAbA15: 5T4 antibody comprising VH of SEQ ID NO:44 and VL of SEQ ID NO:45 (antibody, V domains shown)
VH: EVQLVESGGGLVQPGGSLRLSCAASGFTFSSYYIHWVRQAPGKGLEWVAYITSTGSYTEYADSVKGRFTISADTSKNTAYLQMNSLRAEDTAVYYCARYDRSTRYSGLDYWGQGTLVTVSS
VL: DIQMTQSPSSLSASVGDRVTITCRASQSVSSAVAWYQQKPGKAPKLLIYSASSLYSGVPSRFSGSRSGTDFTLTISSLQPEDFATYYCQQAYATPVTFGQGTKVEIK
modifications: Antibody mAbA15 VH Sequence; Antibody mAbA15 VL Sequence
As to B2, the “developability based on SEC analysis” value in data set [1] is “strong developability”. Further, the “reactivity to cells transfected” value in data set [2] was “reactive”.

B3: mAbA17 (antibody, V domains shown)
VH: EVQLVESGGGLVQPGGSLRLSCAASGFTFSRYWIHWVRQAPGKGLEWVAAIFPYSGSTLYADSVKGRFTISADTSKNTAYLQMNSLRAEDTAVYYCARSPSRSILPSGLDYWGQGTLVTVSS
VL: DIQMTQSPSSLSASVGDRVTITCRASQSVSSAVAWYQQKPGKAPKLLIYSASSLYSGVPSRFSGSRSGTDFTLTISSLQPEDFATYYCQQGDGSPYTFGQGTKVEIKR
notes: also called Antibody mAbA17
Consider B3, for which the EC50 in data set [3] amounted to 0.164 nM; in data set [4] it was 0.207 nM; in data set [5], 0.159 nM; in data set [6] it was 0.185 nM.

B4: mAbA15 (antibody, V domains shown)
VH: EVQLVESGGGLVQPGGSLRLSCAASGFTFSSYYIHWVRQAPGKGLEWVAYITSTGSYTEYADSVKGRFTISADTSKNTAYLQMNSLRAEDTAVYYCARYDRSTRYSGLDYWGQGTLVTVSS
VL: DIQMTQSPSSLSASVGDRVTITCRASQSVSSAVAWYQQKPGKAPKLLIYSASSLYSGVPSRFSGSRSGTDFTLTISSLQPEDFATYYCQQAYATPVTFGQGTKVEIKR
notes: also called Antibody mAbA15
In the case of B4, the EC50 in data set [3] turned out to be 0.124 nM; in data set [4] it was 0.189 nM; in data set [5] it was 0.134 nM; in data set [6], 0.203 nM.

B5: mAbA17: 5T4 antibody comprising VH of SEQ ID NO:62 and VL of SEQ ID NO:63 (antibody, V domains shown)
VH: EVQLVESGGGLVQPGGSLRLSCAASGFTFSRYWIHWVRQAPGKGLEWVAAIFPYSGSTLYADSVKGRFTISADTSKNTAYLQMNSLRAEDTAVYYCARSPSRSILPSGLDYWGQGTLVTVSS
VL: DIQMTQSPSSLSASVGDRVTITCRASQSVSSAVAWYQQKPGKAPKLLIYSASSLYSGVPSRFSGSRSGTDFTLTISSLQPEDFATYYCQQGDGSPYTFGQGTKVEIK
modifications: Antibody mAbA17 VH Sequence; Antibody mAbA17 VL Sequence
In the case of B5, the “developability based on SEC analysis” value in data set [1] is “strong developability”. Besides, the “reactivity to cells transfected” value in data set [2] is “reactive”.

B6: mAbA4 (antibody, V domains shown)
VH: EVQLVESGGGLVQPGGSLRLSCAASGFTFSRYYIHWVRQAPGKGLEWVAFISPGGSYTYYADSVKGRFTISADTSKNTAYLQMNSLRAEDTAVYYCAREYYSMGVLDYWGQGTLVTVSS
VL: DIQMTQSPSSLSASVGDRVTITCRASQSVSSAVAWYQQKPGKAPKLLIYSASSLYSGVPSRFSGSRSGTDFTLTISSLQPEDFATYYCQQAYESPYTFGQGTKVEIKR
notes: also called Antibody mAbA4
In the case of B6, the EC50 in data set [3] came to 0.133 nM; in data set [4], 0.386 nM; in data set [5], 0.132 nM; in data set [6], 0.189 nM.
